Reference: patent publication US20170096478A1, “THERAPEUTIC AGENT FOR INFLAMMATORY DISEASE” (Josai University Corporation, priority 2012, published 2017)

Legend:
histone H3 = assay: ELISA affinity for histone H3; type: binding; settings: absorbance at 405 nm, 5 μg/mL antibody, compared with histone H1
Protocol: The Affinities between histone H1 or core histone and SSVmAb were determined by ELISA.
A 96 well microplate was coated with histone H1, H2A, H2B, H3 or H4. Each histone used was dissolved in 100 mM sodium carbonate buffer (pH 9.3). The plate was washed with PBS-tween 20 (0.05%), and blocked with 3% skim milk and 1% BSA for 1 hour. To each well, 5 μg/mL SSVmAb was added, and incubated for 1 hour. Bound SSVmAb was detected using peroxidase (HRP) conjugated anti mouse IgG1 Ab (SIGMA), and incubated for 1 hour. Bound SSVmAb was detected using the ABTS [2,2′-azino-bis(3-ethylbenzothiazoline-sulfonic acid)] substrate solution, and absorbance at 405 nm was measured using Multiskan Ascent (Thermo Fisher Scientific Inc., Waltham, Mass.).
After the end of the tests, binding assays of SSV mAb with histone H1, histone H3 and histone H4 were carried out by ELISA in the same manner as Test Example 2.

[1] = tested on: lipopolysaccharide (LPS)-induced lethal sepsis; assay: Test Example 8-3: staining test of lung tissue; type: in vivo, BALB/c mice; settings: after the end of Test Example 8
Protocol: (§1) BALB/c mice (bodyweight of 20 g to 30 g when starting the experiments, n=10) were raised in a plastic cage under SPF and thermo-hydrostat (22±1° C., 55±5%) conditions under 12-hour light-dark cycle. Foods and water were supplied ad libitum. Then, by intraperitoneally administering LPS to the mice at a dose of 40 mg/kg, lipopolysaccharide (LPS)-induced lethal sepsis as an inflammatory disease was induced in the same manner as Test Example 7. SSV mAb dissolved in physiological saline was intraperitoneally administered totally 3 times, i.e., at 30 minutes before, 6 hours after and 12 hours after the intraperitoneal administration of LPS, in an amount of 100 μg/dose in terms of the amount of SSV mAb. The survival of the animals thereafter was tested. To the control group, IgG (SIGMA) dissolved in physiological saline was administered in place of SSV mAb in the same manner.
After the end of Test Example 8, lung tissue sections were each obtained from […] of control group and SSV mAb-administered group, and stained by using hematoxylin and eosin stain (from Wako Pure Chemical Industries, Ltd.) according to the method conducted by Hasegawa et al. (Surg Res. 2012 May 1; 174(1):136-41.). Next, micrographs of the obtained samples were taken.
As a reference, micrographs of lung tissue slices from healthy rats were taken in the same manner.

[2] = tested on: lipopolysaccharide (LPS)-induced lethal sepsis; assay: Test Example 8-5: measurement of inflammation-associated cytokine in serum; type: in vivo, BALB/c mice; settings: vs control group
Protocol: as §1
In Test Example 8, serum was obtained from venous blood of the control group and the SSV mAb-administered group every 3 hours. Then, the concentrations of inflammatory cytokine (TNF-α, IL-1β, IL-6) and inhibitory cytokine (IL-10) in obtained samples were measured by using a commercially available measurement kit using ELISA.

B1: SSV mAb: monoclonal antibody (IgG1) produced by Mouse-Mouse hybridoma SSV-C 93-3 (NITE BP-972), raised against peptide … (SEQ ID NO:1)-KLH conjugate (antibody, V domains shown)
VH: EIQLQQSGAELVKPGASVKISCKASGYSFTGYNMNWVKQSHGKSLEWIGNINPYYGSTSYNQKFKGKATLTVDKSSSTAYMQLNSLTSEDSAVYYCARSPYYSNYWRYFDYWGQGTTLTVSS
VL: QIVLSQSPAILSASPGEKVTMTCRASSSVSYMHWYQQKPGSSPKPWIYATSNLASGVPARFSGSGSGTSYSLTISRVEAEDAATYYCQQWSSNPWTFGGGTKLEIK
Histone H3
  affinity for histone H3 (ELISA): binding capacity
Histone H3; listed as SSVmAb
  affinity for histone H3 (ELISA): higher than the affinity for histone H1
[1]
  inflammation in lungs (hematoxylin and eosin stained lung tissue sections): not observed
[2]
  IL-1β concentration in blood sample: significantly decreased
  IL-6 concentration in blood sample: significantly decreased
  IL-10 concentration in blood sample: significantly increased
  TNF-α concentration in blood sample: significantly decreased
